# Reference: article PMC5343618, “Multimer recognition and secretion by the non-classical secretion pathway in Bacillus subtilis” (Scientific Reports, 2017)
# B1: superoxide dismutase (SodA) (enzyme, B. subtilis 168, UniProt P54375 1-202, looked up)
# chain: MAYELPELPYAYDALEPHIDKETMTIHHTKHHNTYVTNLNKAVEGNTALANKSVEELVADLDSVPENIRTAVRNNGGGHANHKLFWTLLSPNGGGEPTGALAEEINSVFGSFDKFKEQFAAAAAGRFGSGWAWLVVNNGKLEITSTPNQDSPLSEGKTPILGLDVWEHAYYLNYQNRRPDYISAFWNVVNWDEVARLYSEAK
# notes: superoxide dismutase (SodA), B. subtilis; gene amplified from B. subtilis 168 chromosomal DNA; source: B. subtilis 1A751, overexpressed from a pMAR-derived plasmid; cytoplasmic fraction and culture supernatant, not purified
# B2: pyruvate dehydrogenase PdhD (enzyme, B. subtilis 168, UniProt P21880 1-470, looked up)
# chain: MVVGDFPIETDTLVIGAGPGGYVAAIRAAQLGQKVTVVEKATLGGVCLNVGCIPSKALINAGHRYENAKHSDDMGITAENVTVDFTKVQEWKASVVNKLTGGVAGLLKGNKVDVVKGEAYFVDSNSVRVMDENSAQTYTFKNAIIATGSRPIELPNFKYSERVLNSTGALALKEIPKKLVVIGGGYIGTELGTAYANFGTELVILEGGDEILPGFEKQMSSLVTRRLKKKGNVEIHTNAMAKGVEERPDGVTVTFEVKGEEKTVDADYVLITVGRRPNTDELGLEQVGIEMTDRGIVKTDKQCRTNVPNIYAIGDIIEGPPLAHKASYEGKIAAEAIAGEPAEIDYLGIPAVVFSEPELASVGYTEAQAKEEGLDIVAAKFPFAANGRALSLNETDGFMKLITRKEDGLVIGAQIAGASASDMISELSLAIEGGMTAEDIAMTIHAHPTLGEITMEAAEVAIGSPIHIVK
# notes: pyruvate dehydrogenase PdhD, B. subtilis; gene amplified from B. subtilis 168 chromosomal DNA; source: B. subtilis 1A751, overexpressed from a pMAR-derived plasmid; cytoplasmic fraction and culture supernatant, not purified
# B3: vegetative catalase (KatA) (enzyme, B. subtilis 168, UniProt P26901 1-483, looked up)
# chain: MSSNKLTTSWGAPVGDNQNSMTAGSRGPTLIQDVHLLEKLAHFNRERVPERVVHAKGAGAHGYFEVTNDVTKYTKAAFLSEVGKRTPLFIRFSTVAGELGSADTVRDPRGFAVKFYTEEGNYDIVGNNTPVFFIRDAIKFPDFIHTQKRDPKTHLKNPTAVWDFWSLSPESLHQVTILMSDRGIPATLRHMHGFGSHTFKWTNAEGEGVWIKYHFKTEQGVKNLDVNTAAKIAGENPDYHTEDLFNAIENGDYPAWKLYVQIMPLEDANTYRFDPFDVTKVWSQKDYPLIEVGRMVLDRNPENYFAEVEQATFSPGTLVPGIDVSPDKMLQGRLFAYHDAHRYRVGANHQALPINRARNKVNNYQRDGQMRFDDNGGGSVYYEPNSFGGPKESPEDKQAAYPVQGIADSVSYDHYDHYTQAGDLYRLMSEDERTRLVENIVNAMKPVEKEEIKLRQIEHFYKADPEYGKRVAEGLGLPIKKDS
# notes: vegetative catalase (KatA), B. subtilis; gene amplified from B. subtilis 168 chromosomal DNA; source: B. subtilis 1A751, overexpressed from a pMAR-derived plasmid; cytoplasmic fraction and culture supernatant, not purified
# B4: general stress protein (YceD) (natural protein, B. subtilis 168, UniProt P80875 1-193, looked up)
# chain: MTISLAKGQKVDLTKTNPGLSKVVVGLGWDTNKYDGGHDFDLDSSVFLLDAAGKCASPNDFIFYNQLEGGNGSVVHSGDNLTGAGEGDDENVKVNLSAVPANIDKISFVITIHDAEARSQNFGQVSNAFVRIVNEETNEELIRYDLAEDFSIETAIIAGELYRHNGEWKFSAIGSGYQGGLARIATDYGLQVG
# notes: general stress protein YceD, B. subtilis; gene amplified from B. subtilis 168 chromosomal DNA; Seen as monomer and as dimer; source: B. subtilis 1A751, overexpressed from a pMAR-derived plasmid; cytoplasmic fraction and culture supernatant, not purified
# B5: fructose 1,6-bisphosphate aldolase (FbaA) (enzyme, B. subtilis 168, UniProt P13243 1-285, looked up)
# chain: MPLVSMTEMLNTAKEKGYAVGQFNLNNLEFTQAILQAAEEEKSPVILGVSEGAGRYMGGFKTVVAMVKALMEEYKVTVPVAIHLDHGSSFESCAKAIHAGFTSVMIDASHHPFEENVATTAKVVELAHFHGVSVEAELGTVGGQEDDVIAEGVIYADPKECQELVERTGIDCLAPALGSVHGPYKGEPNLGFKEMEEIGKSTGLPLVLHGGTGIPTADIKKSISLGTAKINVNTENQISSAKAVRETLAAKPDEYDPRKYLGPAREAIKETVIGKMREFGSSNQA
# notes: fructose 1,6-bisphosphate aldolase (FbaA), B. subtilis; gene amplified from B. subtilis 168 chromosomal DNA; source: B. subtilis 1A751, overexpressed from a pMAR-derived plasmid; cytoplasmic fraction and culture supernatant, not purified
# B6: transaldolase (YwjH) (enzyme, B. subtilis 168, UniProt P19669 1-212, looked up)
# chain: MLFFVDTANIDEIREANELGILAGVTTNPSLVAKEANVSFHDRLREITDVVKGSVSAEVISLKAEEMIEEGKELAKIAPNITVKIPMTSDGLKAVRALTDLGIKTNVTLIFNANQALLAARAGATYVSPFLGRLDDIGHNGLDLISEVKQIFDIHGLDTQIIAASIRHPQHVTEAALRGAHIGTMPLKVIHALTKHPLTDKGIEQFLADWNK
# notes: transaldolase (YwjH), B. subtilis; gene amplified from B. subtilis 168 chromosomal DNA; source: B. subtilis 1A751, overexpressed from a pMAR-derived plasmid; cytoplasmic fraction and culture supernatant, not purified
# B7: molecular chaperone (GroEL) (natural protein, B. subtilis 168, UniProt P28598 1-544, looked up)
# chain: MAKEIKFSEEARRAMLRGVDALADAVKVTLGPKGRNVVLEKKFGSPLITNDGVTIAKEIELEDAFENMGAKLVAEVASKTNDVAGDGTTTATVLAQAMIREGLKNVTAGANPVGVRKGMEQAVAVAIENLKEISKPIEGKESIAQVAAISAADEEVGSLIAEAMERVGNDGVITIEESKGFTTELEVVEGMQFDRGYASPYMVTDSDKMEAVLDNPYILITDKKITNIQEILPVLEQVVQQGKPLLLIAEDVEGEALATLVVNKLRGTFNAVAVKAPGFGDRRKAMLEDIAVLTGGEVITEDLGLDLKSTQIAQLGRASKVVVTKENTTIVEGAGETDKISARVTQIRAQVEETTSEFDREKLQERLAKLAGGVAVIKVGAATETELKERKLRIEDALNSTRAAVEEGIVSGGGTALVNVYNKVAAVEAEGDAQTGINIVLRALEEPIRQIAHNAGLEGSVIVERLKNEEIGVGFNAATGEWVNMIEKGIVDPTKVTRSALQNAASVAAMFLTTEAVVADKPEENGGGAGMPDMGGMGGMGGMM
# notes: molecular chaperone GroEL, B. subtilis; gene amplified from B. subtilis 168 chromosomal DNA; source: B. subtilis 1A751, overexpressed from a pMAR-derived plasmid; cytoplasmic fraction and culture supernatant, not purified
# B8: glyceraldehyde 3-phosphate dehydrogenase (GapA) (enzyme, B. subtilis 168, UniProt P09124 1-335, looked up)
# chain: MAVKVGINGFGRIGRNVFRAALNNPEVEVVAVNDLTDANMLAHLLQYDSVHGKLDAEVSVDGNNLVVNGKTIEVSAERDPAKLSWGKQGVEIVVESTGFFTKRADAAKHLEAGAKKVIISAPANEEDITIVMGVNEDKYDAANHDVISNASCTTNCLAPFAKVLNDKFGIKRGMMTTVHSYTNDQQILDLPHKDYRRARAAAENIIPTSTGAAKAVSLVLPELKGKLNGGAMRVPTPNVSLVDLVAELNQEVTAEEVNAALKEAAEGDLKGILGYSEEPLVSGDYNGNKNSSTIDALSTMVMEGSMVKVISWYDNESGYSNRVVDLAAYIAKKGL
# notes: glyceraldehyde 3-phosphate dehydrogenase (GapA), B. subtilis; gene amplified from B. subtilis 168 chromosomal DNA; source: B. subtilis 1A751, overexpressed from a pMAR-derived plasmid; cytoplasmic fraction and culture supernatant, not purified
# B9: arginase (RocF) (enzyme, B. subtilis 168, UniProt P39138 1-296, looked up)
# chain: MDKTISVIGMPMDLGQARRGVDMGPSAIRYAHLIERLSDMGYTVEDLGDIPINREKIKNDEELKNLNSVLAGNEKLAQKVNKVIEEKKFPLVLGGDHSIAIGTLAGTAKHYDNLGVIWYDAHGDLNTLETSPSGNIHGMPLAVSLGIGHESLVNLEGYAPKIKPENVVIIGARSLDEGERKYIKESGMKVYTMHEIDRLGMTKVIEETLDYLSACDGVHLSLDLDGLDPNDAPGVGTPVVGGISYRESHLAMEMLYDAGIITSAEFVEVNPILDHKNKTGKTAVELVESLLGKKLL
# notes: arginase (RocF), B. subtilis; gene amplified from B. subtilis 168 chromosomal DNA; source: B. subtilis 1A751, overexpressed from a pMAR-derived plasmid; cytoplasmic fraction and culture supernatant, not purified
# B10: 1-pyrroline-5-carboxylate dehydrogenase (YcgN) (enzyme, B. subtilis 168, UniProt P94391 1-515, looked up)
# chain: MTTPYKHEPFTNFQDQNNVEAFKKALATVSEYLGKDYPLVINGERVETEAKIVSINPADKEEVVGRVSKASQEHAEQAIQAAAKAFEEWRYTSPEERAAVLFRAAAKVRRRKHEFSALLVKEAGKPWNEADADTAEAIDFMEYYARQMIELAKGKPVNSREGEKNQYVYTPTGVTVVIPPWNFLFAIMAGTTVAPIVTGNTVVLKPASATPVIAAKFVEVLEESGLPKGVVNFVPGSGAEVGDYLVDHPKTSLITFTGSREVGTRIFERAAKVQPGQQHLKRVIAEMGGKDTVVVDEDADIELAAQSIFTSAFGFAGQKCSAGSRAVVHEKVYDQVLERVIEITESKVTAKPDSADVYMGPVIDQGSYDKIMSYIEIGKQEGRLVSGGTGDDSKGYFIKPTIFADLDPKARLMQEEIFGPVVAFCKVSDFDEALEVANNTEYGLTGAVITNNRKHIERAKQEFHVGNLYFNRNCTGAIVGYHPFGGFKMSGTDSKAGGPDYLALHMQAKTISEMF
# notes: 1-pyrroline-5-carboxylate dehydrogenase (YcgN), B. subtilis; gene amplified from B. subtilis 168 chromosomal DNA; source: B. subtilis 1A751, overexpressed from a pMAR-derived plasmid; cytoplasmic fraction and culture supernatant, not purified
# Molecular target: the molecule itself
# Assay: native gel or EMSA; blue native PAGE (BN-PAGE) of the soluble cytoplasmic fraction and the culture supernatant of B. subtilis after 24 h of cultivation; non-reducing sample buffer, Coomassie blue; mass estimated within ±15%
row,Protein,stoichiometry N
1,B1,2
2,B2,2
3,B3,4
4,B4,2
5,B5,5
6,B6,7
7,B7,2
8,B8,3
9,B9,5
10,B10,4
